{"source": "the supplement of paper PMC6755084", "parents": {"B1": {"name": "minF1; the commonest letter at each place (parent)", "chain": "GAGACCGCAACTGAAAAGTTGTTATCAGAAATGGATGGGTTGAATTTCTGCACGTAGAAGCAAAAGGC"}}}
{"variants_of": "B1", "experiment": "fraction ligated after 30 min (ligated reads / total reads); higher = more ligase activity", "settings": "with F1*subA RNA substrate (template-directed ligation), 42 °C", "procedure,_shortened": "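Ligated and unligated RNAs from a pool of minimized ligase ribozyme variants were separated on gels, reverse transcribed with barcoded primers and sequenced on a MiSeq. Core bases needed quality ≥30 to pass the filter. Each variant's fraction ligated was then taken as ligated reads over total reads.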"}
{"variant": "A24C A43C", "fraction ligated": 0.0036}
{"variant": "A24C A43G", "fraction ligated": 0.00364}
{"variant": "A24C A43T", "fraction ligated": 0.0035}
{"variant": "T23C A44T", "fraction ligated": 0.0534}
{"variant": "T23C A44C", "fraction ligated": 0.0323}
{"variant": "T23C A44G", "fraction ligated": 0.0605}
{"variant": "A24C A31T", "fraction ligated": 0.0211}
{"variant": "A24C A31C", "fraction ligated": 0.0126}
{"variant": "A24C A31G", "fraction ligated": 0.0441}
{"variant": "A24G A31G", "fraction ligated": 0.0578}
{"variant": "A24G A31T", "fraction ligated": 0.0427}
{"variant": "A24G A31C", "fraction ligated": 0.0105}
{"variant": "T23G A35T", "fraction ligated": 0.031}
{"variant": "T23G A35G", "fraction ligated": 0.247}
{"variant": "T23G A35C", "fraction ligated": 0.0185}
{"variant": "T23G", "fraction ligated": 0.8}
{"variant": "T25C G34C", "fraction ligated": 0.00188}
{"variant": "T25C G34A", "fraction ligated": 0.00778}
{"variant": "T25C G34T", "fraction ligated": 0.00336}
{"variant": "T25C T36C", "fraction ligated": 0.00974}
{"variant": "T25C T36A", "fraction ligated": 0.0394}
{"variant": "T25C T36G", "fraction ligated": 0.0541}
{"variant": "A24T G33A", "fraction ligated": 0.0223}
{"variant": "A24T G33T", "fraction ligated": 0.0124}
{"variant": "A24T G33C", "fraction ligated": 0.00781}
{"variant": "A24C A27T", "fraction ligated": 0.105}
{"variant": "A24C A27C", "fraction ligated": 0.056}
{"variant": "A24C A27G", "fraction ligated": 0.0468}
{"variant": "T23C G42T", "fraction ligated": 0.00449}
{"variant": "T23C G42C", "fraction ligated": 0.00249}
{"variant": "T23C G42A", "fraction ligated": 0.0247}
{"variant": "T23G T36A", "fraction ligated": 0.0286}
{"variant": "T23G T36G", "fraction ligated": 0.061}
{"variant": "T23G T36C", "fraction ligated": 0.0436}
{"variant": "T23G T25G", "fraction ligated": 0.193}
{"variant": "T23G T25C", "fraction ligated": 0.153}
{"variant": "T23G T25A", "fraction ligated": 0.0923}
{"variant": "T23G A24G", "fraction ligated": 0.00157}
{"variant": "T23G A24T", "fraction ligated": 0.104}
{"variant": "T23G A24C", "fraction ligated": 0.0996}
{"variant": "T25C A43T", "fraction ligated": 0.00508}
{"variant": "T25C A43C", "fraction ligated": 0.0068}
{"variant": "T25C A43G", "fraction ligated": 0.00741}
{"variant": "T25A G33A", "fraction ligated": 0.0105}
{"variant": "T25A G33T", "fraction ligated": 0.00763}
{"variant": "T25A G33C", "fraction ligated": 0.00366}
{"variant": "T23G G28T", "fraction ligated": 0.803}
{"variant": "T23G G28C", "fraction ligated": 0.8}
{"variant": "T23G G28A", "fraction ligated": 0.798}
{"variant": "A24G A35G", "fraction ligated": 0.0312}
{"variant": "A24G A35T", "fraction ligated": 0.00297}
{"variant": "A24G A35C", "fraction ligated": 0.0163}
{"variant": "T25C C26A", "fraction ligated": 0.00962}
{"variant": "T25C C26G", "fraction ligated": 0.00975}
{"variant": "T25C C26T", "fraction ligated": 0.079}
{"variant": "T25A A29T", "fraction ligated": 0.015}
{"variant": "T25A A29C", "fraction ligated": 0.00458}
{"variant": "T25A A29G", "fraction ligated": 0.00957}
{"variant": "A24C G37T", "fraction ligated": 0.00693}
{"variant": "A24C G37A", "fraction ligated": 0.00687}
{"variant": "A24C G37C", "fraction ligated": 0.00569}
{"variant": "T23G G34A", "fraction ligated": 0.0854}
{"variant": "T23G G34C", "fraction ligated": 0.00122}
{"variant": "T23G G34T", "fraction ligated": 0.00441}
{"variant": "A24G A30G", "fraction ligated": 0.185}
{"variant": "A24G A30C", "fraction ligated": 0.0534}
{"variant": "A24G A30T", "fraction ligated": 0.058}
{"variant": "A24G T36A", "fraction ligated": 0.0103}
{"variant": "A24G T36C", "fraction ligated": 0.0933}
{"variant": "A24G T36G", "fraction ligated": 0.00746}
{"variant": "T25A G34A", "fraction ligated": 0.00806}
{"variant": "T25A G34C", "fraction ligated": 0.0033}
{"variant": "T25A G34T", "fraction ligated": 0.00319}
{"variant": "T23C T32A", "fraction ligated": 0.00196}
{"variant": "T23C T32C", "fraction ligated": 0.0041}
{"variant": "T23C T32G", "fraction ligated": 0.00399}
{"variant": "A24G G42T", "fraction ligated": 0.000969}
{"variant": "A24G G42C", "fraction ligated": 0.00119}
{"variant": "A24G G42A", "fraction ligated": 0.00347}
{"variant": "A24G G37T", "fraction ligated": 0.00318}
{"variant": "A24G G37C", "fraction ligated": 0.000862}
{"variant": "A24G G37A", "fraction ligated": 0.00154}
{"variant": "A24T A43T", "fraction ligated": 0.00827}
{"variant": "A24T A43G", "fraction ligated": 0.00117}
{"variant": "A24T A43C", "fraction ligated": 0.00315}
{"variant": "T23G G33T", "fraction ligated": 0.556}
{"variant": "T23G G33C", "fraction ligated": 0.73}
{"variant": "T23G G33A", "fraction ligated": 0.801}
{"variant": "T25A G37C", "fraction ligated": 0.00598}
{"variant": "T25A G37T", "fraction ligated": 0.00505}
{"variant": "T25A G37A", "fraction ligated": 0.00183}
{"variant": "T23C A35C", "fraction ligated": 0.00513}
{"variant": "T23C A35G", "fraction ligated": 0.0141}
{"variant": "T23C A35T", "fraction ligated": 0.00507}
{"variant": "T25A A30C", "fraction ligated": 0.0114}
{"variant": "T25A A30T", "fraction ligated": 0.0158}
{"variant": "T25A A30G", "fraction ligated": 0.00687}
{"variant": "T23C C26A", "fraction ligated": 0.006}
{"variant": "T23C C26G", "fraction ligated": 0.00264}
{"variant": "T23C C26T", "fraction ligated": 0.0218}
{"variant": "T23G G37T", "fraction ligated": 0.00959}
{"variant": "T23G G37C", "fraction ligated": 0.00547}
{"variant": "T23G G37A", "fraction ligated": 0.00471}
{"variant": "T23G A43G", "fraction ligated": 0.0673}
{"variant": "T23G A43T", "fraction ligated": 0.0898}
{"variant": "T23G A43C", "fraction ligated": 0.0643}
{"variant": "A24C A30C", "fraction ligated": 0.034}
{"variant": "A24C A30T", "fraction ligated": 0.0451}
{"variant": "A24C A30G", "fraction ligated": 0.0241}
{"variant": "T25A G42T", "fraction ligated": 0.00246}
{"variant": "T25A G42C", "fraction ligated": 0.00199}
{"variant": "T25A G42A", "fraction ligated": 0.00144}
{"variant": "T25C A27G", "fraction ligated": 0.209}
{"variant": "T25C A27T", "fraction ligated": 0.407}
{"variant": "T25C A27C", "fraction ligated": 0.113}
{"variant": "T25A C26A", "fraction ligated": 0.00271}
{"variant": "T25A C26G", "fraction ligated": 0.00462}
{"variant": "T25A C26T", "fraction ligated": 0.00642}
{"variant": "T23C G28A", "fraction ligated": 0.242}
{"variant": "T23C G28T", "fraction ligated": 0.326}
{"variant": "T23C G28C", "fraction ligated": 0.224}
{"variant": "A24G G33A", "fraction ligated": 0.294}
{"variant": "A24G G33T", "fraction ligated": 0.0804}
{"variant": "A24G G33C", "fraction ligated": 0.0566}
{"variant": "T23G T32G", "fraction ligated": 0.0266}
{"variant": "T23G T32A", "fraction ligated": 0.084}
{"variant": "T23G T32C", "fraction ligated": 0.00942}
{"variant": "A24T G28A", "fraction ligated": 0.0366}
{"variant": "A24T G28C", "fraction ligated": 0.0438}
{"variant": "A24T G28T", "fraction ligated": 0.0703}
{"variant": "T23C G37C", "fraction ligated": 0.00507}
{"variant": "T23C G37T", "fraction ligated": 0.0164}
{"variant": "T23C G37A", "fraction ligated": 0.00595}
{"variant": "T25A T32A", "fraction ligated": 0.00329}
{"variant": "T25A T32G", "fraction ligated": 0.00199}
{"variant": "T25A T32C", "fraction ligated": 0.00391}
{"variant": "T25A A31G", "fraction ligated": 0.0139}
{"variant": "T25A A31T", "fraction ligated": 0.00708}
{"variant": "T25A A31C", "fraction ligated": 0.00883}
{"variant": "A24T C26T", "fraction ligated": 0.0111}
{"variant": "A24T C26A", "fraction ligated": 0.00282}
{"variant": "A24T C26G", "fraction ligated": 0.0102}
{"variant": "T25A A35T", "fraction ligated": 0.458}
{"variant": "T25A A35G", "fraction ligated": 0.0048}
{"variant": "T25A A35C", "fraction ligated": 0.0123}
{"variant": "T25A A44G", "fraction ligated": 0.00172}
{"variant": "T25A A44T", "fraction ligated": 0.0103}
{"variant": "T25A A44C", "fraction ligated": 0.00273}
{"variant": "A24C A44C", "fraction ligated": 0.00359}
{"variant": "A24C A44G", "fraction ligated": 0.00645}
{"variant": "A24C A44T", "fraction ligated": 0.0123}
{"variant": "T23G A27G", "fraction ligated": 0.795}
{"variant": "T23G A27C", "fraction ligated": 0.714}
{"variant": "T23G A27T", "fraction ligated": 0.805}
{"variant": "A24C A29T", "fraction ligated": 0.0449}
{"variant": "A24C A29G", "fraction ligated": 0.0302}
{"variant": "A24C A29C", "fraction ligated": 0.0282}
{"variant": "T25C G42A", "fraction ligated": 0.00331}
{"variant": "T25C G42T", "fraction ligated": 0.00269}
{"variant": "T25C G42C", "fraction ligated": 0.00383}
{"variant": "A24C G28T", "fraction ligated": 0.0617}
{"variant": "A24C G28C", "fraction ligated": 0.0343}
{"variant": "A24C G28A", "fraction ligated": 0.0266}
{"variant": "A24T A27G", "fraction ligated": 0.0839}
{"variant": "A24T A27T", "fraction ligated": 0.171}
{"variant": "A24T A27C", "fraction ligated": 0.105}
{"variant": "A24T G34A", "fraction ligated": 0.0316}
